Where two headings read alike, the source gives them in different places.
T1: human Fcγ receptor hFcgRIIb (human, UniProt P31994 43-217, limits assumed)
T1 construct: Construct used in the SPR assay is not described; also called FcγRIIb; FcγIIB
T1 sequence: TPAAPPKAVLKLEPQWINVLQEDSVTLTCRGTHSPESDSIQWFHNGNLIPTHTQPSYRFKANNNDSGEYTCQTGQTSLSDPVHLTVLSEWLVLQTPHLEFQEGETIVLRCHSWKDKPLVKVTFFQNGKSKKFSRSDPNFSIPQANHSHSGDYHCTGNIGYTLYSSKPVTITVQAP

T2: human Fcγ receptor hFcgRIIa (R) (human, UniProt P12318 36-217)
T2 construct: also called FcγRIIa (type R); FcγIIA
T2 chain: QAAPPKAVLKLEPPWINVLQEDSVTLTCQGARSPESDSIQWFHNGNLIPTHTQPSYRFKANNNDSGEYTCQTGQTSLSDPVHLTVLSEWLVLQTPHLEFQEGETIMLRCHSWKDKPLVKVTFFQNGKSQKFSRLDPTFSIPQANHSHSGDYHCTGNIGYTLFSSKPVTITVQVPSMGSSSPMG

T3: human Fcγ receptor hFcgRIIa (H) (human, UniProt P12318 36-217)
T3 construct: also called FcγRIIa (type H); FcγIIA
T3 sequence: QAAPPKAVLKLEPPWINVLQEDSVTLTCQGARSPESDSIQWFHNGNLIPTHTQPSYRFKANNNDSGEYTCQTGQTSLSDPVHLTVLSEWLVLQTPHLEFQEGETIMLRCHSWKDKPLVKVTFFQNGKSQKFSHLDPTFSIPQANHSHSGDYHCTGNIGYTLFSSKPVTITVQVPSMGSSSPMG


Key:
Experiment in all cases: SPR, antibody captured on Protein A
[1] = target: T1, human Fcγ receptor hFcgRIIb
Protocol: (§1) The CH2 domain, which was modified in this examination, is known to be involved in interaction with several human Fcγ receptors (hereinafter denoted as hFcgRs) which affect effector functions. Therefore, the binding of TS1 and TS19 prepared by using the H chain of anti-IL6R produced in Example 2 to hFcgRs was measured, according to the method described in Reference Example 3.
(§2) Interactions between antibodies and hFcgRs (hFcgRIa, hFcgRIIa(R), hFcgRIIa(H), hFcgRIIb, hFcgRIIIa(F), and hFcgRIIIa(V)) were analyzed using Biacore T100 (GE Healthcare). HBS-EP+(GE Healthcare) was used for the running buffer, and the measurement temperature was set at 25° C. Protein A (Invitrogen) was immobilized by the amino coupling method, and an antibody of interest was captured thereon. Then, hFcγR solutions diluted using the running buffer were injected to allow interaction with the captured antibody at a flow rate of 30 μL/min for five minutes for hFcγRIa, and at a flow rate of 5 μL/min for one minute for the other hFcγRs. […] Since the hFcγR binding level depends on the amount of captured antibodies, the FcgR-binding levels were corrected so that the capture level of each antibody would be 200 RU (resonance unit) for hFcgRIa and 1000 RU (resonance unit) for the other hFcgRs. The captured antibodies were washed by allowing 10 mM glycine-HCl (pH 1.5) to react for 30 seconds at a flow rate of 30 μL/min to recycle the chip for reuse.

[2] = target: T4, human Fcγ receptor hFcgRIa (human, UniProt P12314 16-292, limits assumed)
T4 construct: Construct used in the SPR assay is not described; also called hFcγRIa; FcγI
T4 sequence (P12314 16-292 limits assumed): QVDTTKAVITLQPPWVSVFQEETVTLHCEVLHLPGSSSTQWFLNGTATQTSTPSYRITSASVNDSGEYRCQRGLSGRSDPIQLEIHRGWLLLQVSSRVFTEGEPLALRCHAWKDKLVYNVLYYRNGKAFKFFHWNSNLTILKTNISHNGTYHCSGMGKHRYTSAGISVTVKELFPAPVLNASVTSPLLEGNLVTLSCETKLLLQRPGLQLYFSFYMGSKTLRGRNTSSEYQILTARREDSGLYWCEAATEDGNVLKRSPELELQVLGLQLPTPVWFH
Protocol: as §1, §2

[3] = target: T2, human Fcγ receptor hFcgRIIa (R)
Protocol: as §1, §2

[4] = target: T5, human Fcγ receptor hFcgRIIIa (V) (human, UniProt P08637 17-208)
T5 construct: also called FcγRIIIa allotype V158; FcγIIIA
T5 sequence (P08637 other isoform, or with tags, fused parts or gaps limits assumed): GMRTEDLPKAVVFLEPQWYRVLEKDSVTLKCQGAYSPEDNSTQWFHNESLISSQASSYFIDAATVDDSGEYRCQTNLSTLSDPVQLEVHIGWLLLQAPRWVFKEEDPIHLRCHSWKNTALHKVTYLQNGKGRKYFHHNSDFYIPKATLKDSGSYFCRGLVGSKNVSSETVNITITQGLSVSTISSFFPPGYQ
Protocol: as §1, §2

[5] = target: T3, human Fcγ receptor hFcgRIIa (H)
Protocol: (§3) Furthermore, binding ability to hFcgRs was measured by the method described in Reference Example 3.
as §2

[6] = target: T1, human Fcγ receptor hFcgRIIb; remark: listed apart in the source
Protocol: as §3, §2

[7] = target: T4, human Fcγ receptor hFcgRIa; remark: listed apart in the source
Protocol: as §3, §2

[8] = target: T2, human Fcγ receptor hFcgRIIa (R)
Protocol: as §3, §2

[9] = target: T5, human Fcγ receptor hFcgRIIIa (V); remark: listed apart in the source
Protocol: as §3, §2

binding relative to G1 (=100) [1]	binding relative to G1 (=100) [2]	binding relative to G1 (=100) [3]	binding relative to G1 (=100) [4]	binding relative to G1 (=100) [5]	binding relative to G1 (=100) [6]	binding relative to G1 (=100) [7]	binding relative to G1 (=100) [8]	binding relative to G1 (=100) [9]	Binder
126	99.8	117	86.2	–	–	–	–	–	TS7 (antibody, anti-IL6R IgG1, G1d with K326S/S324H/A330H (EU); also called TS07) heavy: QVQLQESGPGLVRPSQTLSLTCTVSGYSITSDHAWSWVRQPPGRGLEWIGYISYSGITTYNPSLKSRVTMLRDTSKNQFSLRLSSVTAADTAVYYCARSLARTTAMDYWGQGSLVTVSSASTKGPSVFPLAPSSKSTSGGTAALGCLVKDYFPEPVTVSWNSGALTSGVHTFPAVLQSSGLYSLSSVVTVPSSSLGTQTYICNVNHKPSNTKVDKKVEPKSCDKTHTCPPCPAPELLGGPSVFLFPPKPKDTLMISRTPEVTCVVVDVSHEDPEVKFNWYVDGVEVHNAKTKPREEQYNSTYRVVSVLTVLHQDWLNGKEYKCKVHNSALPHPIEKTISKAKGQPREPQVYTLPPSRDELTKNQVSLTCLVKGFYPSDIAVEWESNGQPENNYKTTPPVLDSDGSFFLYSKLTVDKSRWQQGNVFSCSVMHEALHNHYTQKSLSLSP light: not shown
–	–	–	–	-0.1	6.2	-0.9	1.7	1.1	TS43 (antibody, anti-IL6R IgG1, G1d with L234K/L235R/Q295M/Y296G/S298G/N325H (EU)) heavy: QVQLQESGPGLVRPSQTLSLTCTVSGYSITSDHAWSWVRQPPGRGLEWIGYISYSGITTYNPSLKSRVTMLRDTSKNQFSLRLSSVTAADTAVYYCARSLARTTAMDYWGQGSLVTVSSASTKGPSVFPLAPSSKSTSGGTAALGCLVKDYFPEPVTVSWNSGALTSGVHTFPAVLQSSGLYSLSSVVTVPSSSLGTQTYICNVNHKPSNTKVDKKVEPKSCDKTHTCPPCPAPEKRGGPSVFLFPPKPKDTLMISRTPEVTCVVVDVSHEDPEVKFNWYVDGVEVHNAKTKPREEMGNGTYRVVSVLTVLHQDWLNGKEYKCKVSHKALPAPIEKTISKAKGQPREPQVYTLPPSRDELTKNQVSLTCLVKGFYPSDIAVEWESNGQPENNYKTTPPVLDSDGSFFLYSKLTVDKSRWQQGNVFSCSVMHEALHNHYTQKSLSLSP light: not shown
–	–	–	–	1.4	4.2	0.2	1.2	1	TS41 (antibody, anti-IL6R IgG1, G1d with L234K/L235R/H268K/D270F/Q295M/Y296G/S298G/N325H (EU)) heavy: QVQLQESGPGLVRPSQTLSLTCTVSGYSITSDHAWSWVRQPPGRGLEWIGYISYSGITTYNPSLKSRVTMLRDTSKNQFSLRLSSVTAADTAVYYCARSLARTTAMDYWGQGSLVTVSSASTKGPSVFPLAPSSKSTSGGTAALGCLVKDYFPEPVTVSWNSGALTSGVHTFPAVLQSSGLYSLSSVVTVPSSSLGTQTYICNVNHKPSNTKVDKKVEPKSCDKTHTCPPCPAPEKRGGPSVFLFPPKPKDTLMISRTPEVTCVVVDVSKEFPEVKFNWYVDGVEVHNAKTKPREEMGNGTYRVVSVLTVLHQDWLNGKEYKCKVSHKALPAPIEKTISKAKGQPREPQVYTLPPSRDELTKNQVSLTCLVKGFYPSDIAVEWESNGQPENNYKTTPPVLDSDGSFFLYSKLTVDKSRWQQGNVFSCSVMHEALHNHYTQKSLSLSP light: not shown
–	–	–	–	106	112	101	106	96.6	TS61 (antibody, anti-IL6R IgG1, G1d with G385D/Q386P/N389S (EU)) heavy: QVQLQESGPGLVRPSQTLSLTCTVSGYSITSDHAWSWVRQPPGRGLEWIGYISYSGITTYNPSLKSRVTMLRDTSKNQFSLRLSSVTAADTAVYYCARSLARTTAMDYWGQGSLVTVSSASTKGPSVFPLAPSSKSTSGGTAALGCLVKDYFPEPVTVSWNSGALTSGVHTFPAVLQSSGLYSLSSVVTVPSSSLGTQTYICNVNHKPSNTKVDKKVEPKSCDKTHTCPPCPAPELLGGPSVFLFPPKPKDTLMISRTPEVTCVVVDVSHEDPEVKFNWYVDGVEVHNAKTKPREEQYNSTYRVVSVLTVLHQDWLNGKEYKCKVSNKALPAPIEKTISKAKGQPREPQVYTLPPSRDELTKNQVSLTCLVKGFYPSDIAVEWESNDPPESNYKTTPPVLDSDGSFFLYSKLTVDKSRWQQGNVFSCSVMHEALHNHYTQKSLSLSP light: not shown
–	–	–	–	0.7	0.3	-1.8	1.2	1	TS40 (antibody, anti-IL6R IgG1, G1d with L234K/L235R/H268K/D270F/Q295M/Y296G/S298G/N325G (EU)) heavy: QVQLQESGPGLVRPSQTLSLTCTVSGYSITSDHAWSWVRQPPGRGLEWIGYISYSGITTYNPSLKSRVTMLRDTSKNQFSLRLSSVTAADTAVYYCARSLARTTAMDYWGQGSLVTVSSASTKGPSVFPLAPSSKSTSGGTAALGCLVKDYFPEPVTVSWNSGALTSGVHTFPAVLQSSGLYSLSSVVTVPSSSLGTQTYICNVNHKPSNTKVDKKVEPKSCDKTHTCPPCPAPEKRGGPSVFLFPPKPKDTLMISRTPEVTCVVVDVSKEFPEVKFNWYVDGVEVHNAKTKPREEMGNGTYRVVSVLTVLHQDWLNGKEYKCKVSGKALPAPIEKTISKAKGQPREPQVYTLPPSRDELTKNQVSLTCLVKGFYPSDIAVEWESNGQPENNYKTTPPVLDSDGSFFLYSKLTVDKSRWQQGNVFSCSVMHEALHNHYTQKSLSLSP light: not shown
–	–	–	–	1	2.5	0	1.5	0.8	TS39 (antibody, anti-IL6R IgG1, G1d with L234K/L235R/S239K/Q295M/Y296G/S298G/N325H (EU)) heavy: QVQLQESGPGLVRPSQTLSLTCTVSGYSITSDHAWSWVRQPPGRGLEWIGYISYSGITTYNPSLKSRVTMLRDTSKNQFSLRLSSVTAADTAVYYCARSLARTTAMDYWGQGSLVTVSSASTKGPSVFPLAPSSKSTSGGTAALGCLVKDYFPEPVTVSWNSGALTSGVHTFPAVLQSSGLYSLSSVVTVPSSSLGTQTYICNVNHKPSNTKVDKKVEPKSCDKTHTCPPCPAPEKRGGPKVFLFPPKPKDTLMISRTPEVTCVVVDVSHEDPEVKFNWYVDGVEVHNAKTKPREEMGNGTYRVVSVLTVLHQDWLNGKEYKCKVSHKALPAPIEKTISKAKGQPREPQVYTLPPSRDELTKNQVSLTCLVKGFYPSDIAVEWESNGQPENNYKTTPPVLDSDGSFFLYSKLTVDKSRWQQGNVFSCSVMHEALHNHYTQKSLSLSP light: not shown
–	–	–	–	1.6	6.9	-0.2	1.3	1.3	TS42 (antibody, anti-IL6R IgG1, G1d with L234K/L235R/Q295M/Y296G/S298G/N325G (EU)) heavy: QVQLQESGPGLVRPSQTLSLTCTVSGYSITSDHAWSWVRQPPGRGLEWIGYISYSGITTYNPSLKSRVTMLRDTSKNQFSLRLSSVTAADTAVYYCARSLARTTAMDYWGQGSLVTVSSASTKGPSVFPLAPSSKSTSGGTAALGCLVKDYFPEPVTVSWNSGALTSGVHTFPAVLQSSGLYSLSSVVTVPSSSLGTQTYICNVNHKPSNTKVDKKVEPKSCDKTHTCPPCPAPEKRGGPSVFLFPPKPKDTLMISRTPEVTCVVVDVSHEDPEVKFNWYVDGVEVHNAKTKPREEMGNGTYRVVSVLTVLHQDWLNGKEYKCKVSGKALPAPIEKTISKAKGQPREPQVYTLPPSRDELTKNQVSLTCLVKGFYPSDIAVEWESNGQPENNYKTTPPVLDSDGSFFLYSKLTVDKSRWQQGNVFSCSVMHEALHNHYTQKSLSLSP light: not shown
